Assay results from paper PMC11046469, “Leveraging a Phage-Encoded Noncanonical Amino Acid: A Novel Pathway to Potent and Selective Epigenetic Reader Protein Inhibitors” (ACS Central Science, 2024).
Where a SMILES comes first, the peptide text is derived from it. Where no end group is shown, it is not given here. The star is where a group is joined. Oxazole(5-CO) = O=C(c1cnco1)*; Crotonyl(E) = C/C=C/C(=O)*; 2Furoyl = O=C(c1ccco1)*; Butyryl = CCCC(=O)*

T1: ENL YEATS domain (His-ENL) (Homo sapiens, UniProt Q03111)
T1 construct: (aa 1−148) was cloned in pET19b; made in house; host or cells: E. coli BL21(DE3pLysS)
T1 sequence (Q03111 1-148): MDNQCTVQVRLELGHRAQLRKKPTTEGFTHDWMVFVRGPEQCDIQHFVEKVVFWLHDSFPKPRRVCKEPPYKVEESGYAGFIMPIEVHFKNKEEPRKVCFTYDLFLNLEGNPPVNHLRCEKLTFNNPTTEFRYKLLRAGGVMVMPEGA

T2: ENL YEATS domain (His-ENL YEATS) (Homo sapiens, UniProt Q03111)
T2 construct: (aa 1−148) was cloned in pET19b; made in house; host or cells: E. coli BL21(DE3pLysS)
T2 sequence (Q03111 1-148): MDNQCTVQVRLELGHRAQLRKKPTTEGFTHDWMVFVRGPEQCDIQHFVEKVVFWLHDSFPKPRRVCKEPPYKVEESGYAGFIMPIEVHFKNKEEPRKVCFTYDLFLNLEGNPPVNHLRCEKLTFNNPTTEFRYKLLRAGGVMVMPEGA

T3: 6xHis-tagged ENL YEATS domain, Q03111
T3 chain: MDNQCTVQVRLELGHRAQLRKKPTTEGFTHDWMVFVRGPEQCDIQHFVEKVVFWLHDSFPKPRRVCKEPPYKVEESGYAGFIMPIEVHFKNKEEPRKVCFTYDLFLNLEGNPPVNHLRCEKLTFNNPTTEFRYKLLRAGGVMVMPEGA

T4: AF9 YEATS domain (human, UniProt P42568 1-138)
T4 chain: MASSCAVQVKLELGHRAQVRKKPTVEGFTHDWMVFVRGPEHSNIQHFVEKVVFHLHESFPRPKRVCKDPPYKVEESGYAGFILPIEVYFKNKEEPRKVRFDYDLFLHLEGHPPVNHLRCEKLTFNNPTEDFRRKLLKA

T5: 6xHis-tagged ENL YEATS domain (human, UniProt Q03111 1-148)
T5 chain: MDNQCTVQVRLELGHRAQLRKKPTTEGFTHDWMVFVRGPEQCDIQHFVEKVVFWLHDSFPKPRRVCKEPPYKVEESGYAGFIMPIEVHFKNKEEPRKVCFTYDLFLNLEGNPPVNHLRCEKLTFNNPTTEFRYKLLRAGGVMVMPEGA


Legend:
[1] = molecular target: T1, ENL YEATS domain (His-ENL); assay: Biolayer interferometry (BLI) binding to ENL YEATS; details: BLI
From the text: (§1) To test the inhibition potency of the two selected peptides for the ENL YEATS domain, ENL-S1 and ENL-S2 were chemically synthesized through solid-phase peptide synthesis (SPPS) and evaluated by an AlphaScreen assay. In this assay, a biotinylated H3K27cr peptide and a 6xHis-tagged ENL YEATS domain (His-ENL YEATS) were immobilized on PerkinElmer streptavidin donor and nickel-chelating (Ni-NTA) acceptor beads, respectively. The use of a His-ENL YEATS instead of the original AviSUMO-ENL YEATS construct in the assay prevents potential false positive results derived from ligands which bind to the SUMO protein but not to the ENL YEATS domain. […] We then assessed the binding affinity of two ligands for the ENL YEATS domain using biolayer interferometry (BLI). Briefly, His-ENL was immobilized onto Ni-NTA functionalized biosensors to measure the binding kinetics of target peptides at different concentrations. […] As a small peptide directly selected from a phage display library, this level of high potency was unexpected. […] However, shorter-than-10-mer linear peptides with nanomolar binding potency have rarely been directly selected from phage display libraries. One example was S2P03, a 7-mer peptide that has a KD value as 49 ± 9 nM to bind to SIRT2.[10] This peptide contained BuK and was identified also from a BuK-containing phage display library using the active site-directed ligand selection technique. Taken together, the two examples confirmed that utilizing phage display libraries incorporated with a ncAA serving as a ligand for a protein target for active site-directed ligand selection is a successful method for identifying ultrahigh potency ligands for epigenetic proteins including both enzymes and readers. For ENL-S1 and ENL-S2, their determined kon and koff values were 6.23 ± 0.07 × 10^4 M^–1 s^–1, […] and […], 5.54 ± 0.02 × 10^–3 s^–1, respectively. Compared to ENL-S2, ENL-S1 has faster binding to the ENL YEATS domain and slower release from it, indicating its potential long-term action on the ENL YEATS inhibition. […]
Biolayer Interferometry to Validate ENL Ligands:
His-ENL, His-AF9 (aa 1-149, EpiCypher), His-GAS41 (aa 15-160, EpiCypher), and YEATS2-His (aa 200-345, EpiCypher) were reconstituted in water and diluted into assay buffer (20mM Tris, 300 mM NaCl, pH 7.9) for immobilization onto Octet Ni-NTA biosensors (Sartorius). Lyophilized peptides were dissolved in DMF and diluted to designated concentrations in assay buffer. Biolayer interferometry assays were performed in 96 well plates (GreinerBio-One, polypropylene, flat-bottom) using an Octet Red96 System (Sartorius). Wells were filled with 200 μL of assay buffer, blocking buffer (assay buffer + 0.1% BSA), protein solution, peptide solution, regeneration solution, and reload solution. For immobilization, His-tagged proteins were immobilized onto Ni-NTA sensors at 20 for 600 s. Sensors were then dipped into blocking buffer for 180 s, assay […] buffer for 300 s, peptide solution for 300 s, and back to assay buffer for 300 s. If multiple samples were tested, Ni-NTA sensors can be reconditioned in regeneration (10 mM glycine, pH 1.7) solution followed by reload solution (10 mM NiCl2) for 30 and 60 s, respectively. Measurements were carried out at 30 °C. Data were analyzed within the ForteBio Data Analysis software. Data were processed by double subtracting ligand only and protein only reference wells and aligning the data to the beginning of the association. Then, global kinetic fit was performed for all sensogram curves with a 1:1 model. Steady state KD values were reported.
AlphaScreen Assay with Biotinylated-ENL-S1:
The AlphaScreen assay was carried out in 384-well plates. Manual assay setup was performed in a 40 uL reaction buffer (50 mM HEPES pH 7.4, 100 mM NaCl, 0.1% bovine serum albumin, and 0.05% CHAPS). 10 µL of varying concentrations of His-ENL YEATS (0-300 nM) and 10 µL of […]

[2] = molecular target: T2, ENL YEATS domain (His-ENL YEATS); assay: AlphaScreen inhibition of ENL YEATS binding to biotinylated H3K27cr peptide; details: mean ± SD, n = 3
From the text: as §1
Characterization of Selected Peptide Inhibitors
AlphaScreen Assay to Validate ENL Inhibitors:
His-ENL, His-AF9 (aa 1-149, EpiCypher), and biotinylated H3K27cr (aa 15-33, EpiCypher) were used to assay the synthesized inhibitors. The lyophilized peptide inhibitors were dissolved in DMF […]
and serially diluted into assay buffer (50 mM HEPES, 100 mM NaCl, 0.1% BSA, 0.05% CHAPS, pH 7.4) and incubated in the presence of 120 nM His-tagged protein at 37 °C for 30 minutes. 12.5 μL of biotinylated H3K27cr (400 nM) was aliquoted into a light gray 384-well Alphaplate (Perkin Elmer) and incubated at 37 °C. 12.5 μL of the inhibitor/protein solution was added to the H3K27cr solution, and incubated for 30 minutes at 37 °C. 25 μL of AlphaScreen histidine (nickel chelate) detection beads (Perkin Elmer) was added at 20 μg/mL each bead (streptavidin donor beads and nickel chelate acceptor beads), and the plate was incubated at 37 °C for 30 minutes. The plate was cooled to room temperature for 10 minutes, and then the beads were excited at 680 nm and the luminescence at 615 nm was read. […]
Biolayer […]
interferometry assays were performed in 96 well plates (GreinerBio-One, polypropylene, flat-bottom) using an Octet Red96 System (Sartorius). Wells were filled with 200 μL of assay buffer, blocking buffer (assay buffer + 0.1% BSA), protein solution, peptide solution, regeneration solution, and reload solution. For immobilization, His-tagged proteins were immobilized onto Ni-NTA sensors at 20 for 600 s. Sensors were then dipped into blocking buffer for 180 s, assay […] buffer for 300 s, peptide solution for 300 s, and back to assay buffer for 300 s. If multiple samples were tested, Ni-NTA sensors can be reconditioned in regeneration (10 mM glycine, pH 1.7) solution followed by reload solution (10 mM NiCl2) for 30 and 60 s, respectively. Measurements […]

[3] = molecular target: T3, 6xHis-tagged ENL YEATS domain, Q03111; assay: AlphaScreen; details: chain shown with the change; n = 3; parent: 62.6 nM
AF9 YEATS domain [4] = molecular target: T4, AF9 YEATS domain; assay: AlphaScreen or HTRF; competition: AF9 YEATS and its corresponding acylated histone peptide; test peptide varied; n = 3
AF9 YEATS domain [5] = molecular target: T4, AF9 YEATS domain
[6] = molecular target: T5, 6xHis-tagged ENL YEATS domain; assay: AlphaScreen or HTRF; competition: biotinylated H3K27cr peptide on streptavidin donor beads, His-ENL YEATS on nickel-chelating (Ni-NTA) acceptor beads; test peptide varied; n = 3

| IC50 [3] [nM] | fold lower potency (IC50) toward AF9 YEATS than toward ENL YEATS (AF9 YEATS domain [4]) [fold] | IC50 (AF9 YEATS domain [5]) [nM] | Molecule | further results |
| --- | --- | --- | --- | --- |
| – | – | – | CCCC(=O)NCCCC[C@H](NC(=O)[C@H](CCC(=O)O)NC(=O)[C@@H](NC(=O)[C@@H](NC(=O)[C@H](Cc1c[nH]c2ccccc12)NC(=O)[C@@H](N)Cc1c[nH]c2ccccc12)[C@@H](C)CC)[C@@H](C)CC)C(=O)NCC(N)=O [ENL-S2] (H-WWIIEK(Butyryl)G-NH2; N-terminus assumed) | Kd [1]: 881 ± 9 nM; koff [1]: 0.00554 s⁻¹; IC50 [2]: 1220 nM |
| – | – | – | CCCC(=O)NCCCC[C@H](NC(=O)[C@H](Cc1ccc(O)cc1)NC(=O)[C@H](CS)NC(=O)[C@H](Cc1ccc(O)cc1)NC(=O)[C@H](C)NC(=O)[C@H](CC(=O)O)NC(=O)[C@@H](N)Cc1ccc(O)cc1)C(N)=O [ENLS1A3] (H-YDAYCYK(Butyryl)-NH2; N-terminus assumed) | IC50 [2]: > 5000 nM |
| 718 | – | – | YDVACYK [ENL-S1 Y4A] | – |
| – | 23 | 231 | YDVYCYK(Oxazole(5-CO)) [ENL-S1o] | IC50 [6]: 10 nM |
| > 2000 | – | – | YDVYAYK [ENL-S1 C5A] | – |
| 52.2 | – | – | YAVYCYK [ENL-S1 D2A] | – |
| > 5000 | – | – | YDAYCYK [ENL-S1 V3A] | – |
| 248 | – | – | ADVYCYK [ENL-S1 Y1A] | – |
| – | 7.7 | 168 | YDVYCYK(2Furoyl) [ENL-S1f] | IC50 [6]: 22 nM |
| – | 18 | 347 | YDVYCYK(Crotonyl(E)) [ENL-S1c] | – |
